Reference: patent publication US20200291104A1 (UCB, published 2020)
Several values for one entry are separate records, joined by “and”; a condition that tells them apart may be missing. Equal entries are not always repeated.

How the values were obtained:
[1] = target: cynomolgus TNF (cynomolgus) (UniProt P79337); assay: SPR (Biacore T200); Fab captured by anti-human F(ab')2, cynomolgus TNF injected at 3.125 nM
[2] = target: T1, human TNF-alpha (human, UniProt P01375 77-233); assay: SPR (Biacore T200); Fab captured by anti-human F(ab')2, human TNF injected at 5 nM
[3] = target: T1, human TNF-alpha; assay: SPR (Biacore T200); IgG captured by anti-mouse IgG-Fc, human TNF injected at 20 nM
[4] = target: T1, human TNF-alpha; assay: cell-based or functional assay

T1 sequence (P01375 77-233 limits assumed): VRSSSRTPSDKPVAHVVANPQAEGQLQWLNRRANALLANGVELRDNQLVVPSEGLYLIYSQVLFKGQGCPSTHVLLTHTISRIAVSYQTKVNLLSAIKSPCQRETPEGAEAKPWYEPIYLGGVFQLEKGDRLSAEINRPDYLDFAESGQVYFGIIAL

Kd [1] | koff [1] [s⁻¹] | kon [1] [M⁻¹ s⁻¹] | Kd [2] | koff [2] [s⁻¹] | kon [2] [M⁻¹ s⁻¹] | Kd [3] [nM] | koff [3] [s⁻¹] | kon [3] [M⁻¹ s⁻¹] | EC50 (ng/ml), neutralisation in HEK-293-CD40-BLUE reporter assay [4] [ng/mL] | Binder
0.0274 nM and 0.027 nM | 0.000102 | 3.71e+06 | 0.0349 nM and 0.035 nM | 0.000143 | 4.09e+06 |  |  |  |  | 2109 rat/human chimeric Fab (Fab, V domains shown) VH: EVQLHQSGAALVKPGASVKLSCKTSGYTFTDNYIHWVKQSPGKSLEWIGYINPSSAYAHYNEKFKTKATLTVDKSTNTAYMELSRLTSEDSATYFCTRRYYSAMPFAYWGQGTLVTVSS VL: DIVMTQSPASLSASLGETVTIECRASEDIYNGLAWYQQKPGKSPHLLIYNSNTLHTGVPSRFSGTGSGTQYSLKINSLQSEDVATYFCQQNYDFPLTFGSGTKLELKR
 |  |  |  |  |  | 0.025 | 0.000119 | 4.7e+06 | 0.31 | CA2109 IgG (recombinant rat/mouse chimeric IgG1) (antibody, V domains shown) VH: EVQLHQSGAALVKPGASVKLSCKTSGYTFTDNYIHWVKQSPGKSLEWIGYINPSSAYAHYNEKFKTKATLTVDKSTNTAYMELSRLTSEDSATYFCTRRYYSAMPFAYWGQGTLVTVSS VL: DIVMTQSPASLSASLGETVTIECRASEDIYNGLAWYQQKPGKSPHLLIYNSNTLHTGVPSRFSGTGSGTQYSLKINSLQSEDVATYFCQQNYDFPLTFGSGTKLELK
